From article doi:10.1101/2020.10.06.326603 (bioRxiv, 2020)
Like-named read-outs stand apart in the source and are kept apart here.

B1: IscS S10Q, H247P, Q248L variant (enzyme, E. coli)
chain: MKLPIYLDYQATTPVDPRVAEKMMQFMTMDGTFGNPASRSHRFGWQAEEAVDIARNQIADLVGADPREIVFTSGATESDNLAIKGAANFYQKKGKHIITSKTEHKAVLDTCRQLEREGFEVTYLAPQRNGIIDLKELEAAMRDDTILVSIMHVNNEIGVVQDIAAIGEMCRARGIIYHVDATQSVGKLPIDLSQLKVDLMSFSGHKIYGPKGIGALYVRRKPRVRIEAQMHGGGHERGMRSGTLPVPLIVGMGEAYRIAKEEMATEMERLRGLRNRLWNGIKDIEEVYLNGDLEHGAPNILNVSFNYVEGESLIMALKDLAVSSGSACTSASLEPSYVLRALGLNDELAHSSIRFSLGRFTTEEEIDYTIELVRKSIGRLRDLSPLWEMYKQGVDLNSIEWAHH

What was measured:
[1] = biological target: the molecule itself
[2] = biological target: the molecule itself; assay: cell-based or functional assay
SEC [3] = biological target: the molecule itself; assay: SEC
SEC [4] = biological target: the molecule itself; assay: SEC; remark: listed apart in the source
IscS^QPL-IscU complex = IscS^QPL-IscU complex (E. coli, UniProt P0A6B7 1-404; P0ACD4 1-128, S10Q | H247P | Q248L); assay: native MS
[5] = biological target: B1; assay: native MS

Row | binding result (IscS^QPL-IscU complex) | binding result [5] | Binder | Kd [1] [µM] | cysteine desulfurase activity under standard conditions (kcat) [2] [s⁻¹] | stoichiometry N (SEC [3]) | stoichiometry N (SEC [4])
1 | – | – | IscS S10H, H247P, Q248L variant (enzyme, E. coli) MKLPIYLDYHATTPVDPRVAEKMMQFMTMDGTFGNPASRSHRFGWQAEEAVDIARNQIADLVGADPREIVFTSGATESDNLAIKGAANFYQKKGKHIITSKTEHKAVLDTCRQLEREGFEVTYLAPQRNGIIDLKELEAAMRDDTILVSIMHVNNEIGVVQDIAAIGEMCRARGIIYHVDATQSVGKLPIDLSQLKVDLMSFSGHKIYGPKGIGALYVRRKPRVRIEAQMHGGGHERGMRSGTLPVPLIVGMGEAYRIAKEEMATEMERLRGLRNRLWNGIKDIEEVYLNGDLEHGAPNILNVSFNYVEGESLIMALKDLAVSSGSACTSASLEPSYVLRALGLNDELAHSSIRFSLGRFTTEEEIDYTIELVRKSIGRLRDLSPLWEMYKQGVDLNSIEWAHH | 8 | 0.025 | 2 | –
2 | – | – | IscS S10N, H247P, Q248L variant (enzyme, E. coli) MKLPIYLDYNATTPVDPRVAEKMMQFMTMDGTFGNPASRSHRFGWQAEEAVDIARNQIADLVGADPREIVFTSGATESDNLAIKGAANFYQKKGKHIITSKTEHKAVLDTCRQLEREGFEVTYLAPQRNGIIDLKELEAAMRDDTILVSIMHVNNEIGVVQDIAAIGEMCRARGIIYHVDATQSVGKLPIDLSQLKVDLMSFSGHKIYGPKGIGALYVRRKPRVRIEAQMHGGGHERGMRSGTLPVPLIVGMGEAYRIAKEEMATEMERLRGLRNRLWNGIKDIEEVYLNGDLEHGAPNILNVSFNYVEGESLIMALKDLAVSSGSACTSASLEPSYVLRALGLNDELAHSSIRFSLGRFTTEEEIDYTIELVRKSIGRLRDLSPLWEMYKQGVDLNSIEWAHH | 0.8 | 0.148 | 2 | –
3 | – | – | B1 | 32 | 0.00367 | – | 2
4 | binds | binds | CyaY (E. coli homolog of frataxin) (natural protein, UniProt P27838 1-106, looked up) MNDSEFHRLADQLWLTIEERLDDWDGDSDIDCEINGGVLTITFENGSKIIINRQEPLHQVWLATKQGGYHFDLKGDEWICDRSGETFWDLLEQAATQQAGETVSFR | – | – | – | –
